Source: publication PMC2912431

How the values were obtained:
[1] = biological target: C28A UreGStr (Klebsiella aerogenes) (UniProt P18319); test: SEC
[2] = biological target: Klebsiella aerogenes UreE (Klebsiella aerogenes); test: SEC

stoichiometry N [2]	Substance	stoichiometry N [1]
–	C28A UreGStr (from UniProt P18319 1-205) (natural protein)	2
2	Klebsiella aerogenes UreE (natural protein)	–
